Assay results published in article PMC2927863.

Tests used:
GST-NHR-6 (C288S) = target: T1, GST-NHR-6 (C288S) (Caenorhabditis elegans, UniProt P41829 260-619, C288S); assay: EMSA
T1 sequence: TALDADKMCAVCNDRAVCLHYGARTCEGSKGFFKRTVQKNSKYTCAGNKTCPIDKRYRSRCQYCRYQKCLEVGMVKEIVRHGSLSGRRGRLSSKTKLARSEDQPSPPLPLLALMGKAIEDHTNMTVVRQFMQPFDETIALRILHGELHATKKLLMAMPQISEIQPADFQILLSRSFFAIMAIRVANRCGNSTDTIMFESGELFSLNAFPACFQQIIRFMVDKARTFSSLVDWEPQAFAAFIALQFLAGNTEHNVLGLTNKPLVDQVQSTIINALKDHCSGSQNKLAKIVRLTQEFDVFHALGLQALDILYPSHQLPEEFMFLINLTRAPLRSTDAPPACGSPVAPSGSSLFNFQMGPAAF

GST-NHR-6 (DBD+LBD) [1] = target: T2, GST-NHR-6 (DBD+LBD) (Caenorhabditis elegans, UniProt P41829 260-619); assay: EMSA
T2 sequence: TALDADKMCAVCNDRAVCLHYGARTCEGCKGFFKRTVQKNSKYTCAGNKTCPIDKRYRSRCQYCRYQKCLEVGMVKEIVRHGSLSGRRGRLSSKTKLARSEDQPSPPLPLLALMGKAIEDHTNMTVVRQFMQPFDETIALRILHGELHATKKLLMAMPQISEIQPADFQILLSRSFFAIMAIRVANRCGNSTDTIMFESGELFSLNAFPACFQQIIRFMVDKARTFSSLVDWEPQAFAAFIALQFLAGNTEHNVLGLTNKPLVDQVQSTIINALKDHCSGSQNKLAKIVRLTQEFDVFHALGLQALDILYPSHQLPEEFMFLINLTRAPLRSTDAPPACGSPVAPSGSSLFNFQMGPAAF

GST-NHR-6 (DBD+LBD) [2] = target: T2, GST-NHR-6 (DBD+LBD); assay: competition

B1: NBRE 26-mer (dsDNA)
DNA 1: GAGTTTTAAAAGGTCATGCTCAATTT
DNA 2: AAATTGAGCATGACCTTTTAAAACTC
- binding result (GST-NHR-6 (C288S)): no binding
- binding result (GST-NHR-6 (DBD+LBD) [1]): binds

B2: mutant NBRE 26-mer (dsDNA)
DNA 1: GAGTTTTACCAGGTCATGCTCAATTT
DNA 2: AAATTGAGCATGACCTGGTAAAACTC
- binding result (GST-NHR-6 (DBD+LBD) [2]): no binding
